This passage reports Kd and fold weaker binding than Flu-Dha-Erk results from PMC9934072, “The mechanism of thia-Michael addition catalyzed by LanC enzymes” (Proceedings of the National Academy of Sciences of the …, 2023).

The target of assay [1] is fluorescein-labeled Dha-Erk peptide. Kind of assay: fluorescence polarisation; LanCL1 or variant titrated (highest 400 μM, 300 μM for some variants) against 20 nM fluorescein-peptide; 0.5 mM TCEP, 0.1 mM ZnCl2, 150 mM NaCl, 100 mM Tris pH 7.5, no GSH; 15 min incubation; triplicates. For orientation: Polarisation of emitted light reports the rotation of a fluorescent probe.

Assay [2] concerns the target Fluorescein-labeled Erk peptide in which the Dha was substituted by L-Ala. The assay can be described thus: fluorescence polarisation; fluorescein-labeled peptide with LanCL1 or its variants; in the absence of GSH to avoid catalytic turnover.
The target in assay [3] is T1, LanCL1 Wild Type (human LanC-like protein 1) (human, UniProt O43813 1-399).
T1 construct: LanC-like protein 1 (LanCL1), human; also called LanCL1 WT; WT-LanCL1; source: E. coli Rosetta 2 (DE3), purified (HisTrap Ni-NTA, PD-10 desalting)
T1 sequence (O43813 whole entry): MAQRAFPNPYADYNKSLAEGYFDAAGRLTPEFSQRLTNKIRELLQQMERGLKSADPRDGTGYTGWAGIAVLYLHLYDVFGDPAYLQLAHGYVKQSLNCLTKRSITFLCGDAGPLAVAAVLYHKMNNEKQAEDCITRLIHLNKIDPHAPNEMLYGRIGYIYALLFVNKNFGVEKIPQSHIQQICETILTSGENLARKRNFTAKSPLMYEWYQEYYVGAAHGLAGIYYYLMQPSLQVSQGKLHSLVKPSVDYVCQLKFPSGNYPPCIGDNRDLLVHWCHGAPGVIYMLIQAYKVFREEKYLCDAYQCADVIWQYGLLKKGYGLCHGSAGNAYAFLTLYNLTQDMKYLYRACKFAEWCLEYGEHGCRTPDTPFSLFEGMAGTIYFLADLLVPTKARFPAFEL
The assay can be described thus: fluorescence polarisation; LanCL1 or variant titrated (highest 400 μM, 300 μM for some variants) against 20 nM fluorescein-peptide; 0.5 mM TCEP, 0.1 mM ZnCl2, 150 mM NaCl, 100 mM Tris pH 7.5, no GSH; 15 min incubation; triplicates. Particulars: both partners purified.

Assay [4] deals with T1, LanCL1 Wild Type (human LanC-like …). The assay is described as above. Particulars: both partners purified. This is another data set of the same source.

Ends that are not written are not given here. Some results are limits rather than exact numbers.

For orientation: Kd means the concentration at which binding is half-saturated. For “LanCL1 C264A/H277A (from UniProt O43813 1-399) (enzyme)”, in assay [1], the Kd was over 112 µM.

“LanCL1 C264A/H277K (from UniProt O43813 1-399) (enzyme)” displayed a Kd in assay [1] of over 470 µM.

Consider “LanCL1 C264A/H277N (from UniProt O43813 1-399) (enzyme)”, for which the Kd in assay [1] was over 315 µM. In assay [2], “human LanCL1, wild type (His6-LanCL1) (from UniProt O43813 1-399) (enzyme)” gave a fold weaker binding than Flu-Dha-Erk of 4 fold.

B1: fluorescein-labeled Ala-Erk peptide (peptide)
peptide: DHTGFLAEYVATR
modifications: also: fluorescein label, end not given here
notes: Numbers count on: the synthetic 13-mer; Its preparation is not described; also called Flu-Ala-Erk; fluorescein-Ala-Erk
As for B1, the Kd was 79.6 ± 7.6 µM in assay [3] and over 133 µM in assay [4].
